# Results from the supplement of paper PMC7877785.
# ± gives the uncertainty stated by the source.
# Test: self-splicing fitness, log relative to wild type (ln ratio); higher = more splicing; Tetrahymena group I intron in knt gene, E. coli kanamycin selection, DiMSum; sequences stand for … in CUCUCU…GGAGGGAAAAGUUAUCAGGCAUGCACCUGGUAGCUAGUCUUUAAACCAAUAGAUUGCAUCGGUUUAAAAGGCAAGACCGUCAAAUUGCGGGAAAGGGGUCAACAGCCGUUCAGUACCAAGUCUCAGGGGAAACUUUGAGAUGGCCUUGCAAAGGGUAUGGUAAUAAGCUGACGGACAUGGUCCUAACCACGCAGCCAAGUCCUAAGUCAACAGAUCUUCUGUUGAUAUGGAUGCAGUUCACAGACUAAAUGUCGGUCGGGGAAGAUGUAUUCUUCUCAUAAGAUAUAGUCGGACCUCUCCUUAAUGGGAGCUAGCGGAUGAAGUGAUGCAACACUGGAGCCGCUGGGAACUAAUUUGUAUGCGAAAGUAUAUUGAUUAGUUUUGGAGUACUCGUGGUCG
# In short: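 Six replicate transformations of E. coli BL21(DE3) with a pET-22b(+) library were grown overnight at 37°C or 30°C. The library randomised all eight P1ex-region intron nucleotides, the intron lying in the knt kanamycin-resistance gene, and plates were LB agar with or without 25 μg/mL kanamycin plus 100 μg/mL carbenicillin, 50 μM IPTG and 0.2% rhamnose. Pooled colonies were amplicon-sequenced on an Illumina HiSeq 2500, and fitness is the DiMSum error-weighted combination of wild-type-normalised replicate fold changes, kanamycin versus none.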
Sequence,self-splicing fitness (ln) (30 °C),self-splicing fitness (ln) (37 °C)
GUGCAGCAAUAUUACGCAAG,-1.5 ± 0.1,-0.974 ± 0.12
AUGCAGCAAUAUUACGGGCG,0.108 ± 0.089,0.464 ± 0.11
GACUAGCAAUAUUACGAUUA,-0.841 ± 0.069,-0.413 ± 0.082
UCCCAGCAAUAUUACGGUCG,-1.76 ± 0.071,-0.748 ± 0.078
CCCGAGCAAUAUUACGUCAA,-3.36 ± 0.2,-3.09 ± 0.2
UGAGAGCAAUAUUACGGAAU,,1.01 ± 0.35
GGGCAGCAAUAUUACGUCGU,-0.45 ± 0.11,-0.185 ± 0.1
UCUGAGCAAUAUUACGUGGG,-2.78 ± 0.14,-0.918 ± 0.11
UCAAAGCAAUAUUACGCUCA,-0.864 ± 0.15,-0.428 ± 0.19
CAGCAGCAAUAUUACGGACG,-0.284 ± 0.069,-0.581 ± 0.081
AAUAAGCAAUAUUACGAUGA,-0.45 ± 0.1,-0.0904 ± 0.11
UAAUAGCAAUAUUACGGCCG,-0.212 ± 0.12,0.0754 ± 0.16
CCCAAGCAAUAUUACGAUGA,-1.7 ± 0.19,-2.69 ± 0.24
AUCCAGCAAUAUUACGAAGU,-1.21 ± 0.079,-1.2 ± 0.094
UGCAAGCAAUAUUACGGUCA,0.0812 ± 0.064,-0.169 ± 0.065
AUCCAGCAAUAUUACGAGGG,-2.9 ± 0.1,-1.49 ± 0.11
AUGGAGCAAUAUUACGACGU,-0.474 ± 0.09,-0.306 ± 0.099
CCAGAGCAAUAUUACGGCGG,-3.72 ± 0.18,-1.92 ± 0.24
GUAAAGCAAUAUUACGUAGU,-2.42 ± 0.12,-1.36 ± 0.18
ACGUAGCAAUAUUACGAUGG,-3.99 ± 0.35,-1.52 ± 0.29
CUUAAGCAAUAUUACGUUAC,-2.2 ± 0.19,-2.67 ± 0.34
UUUAAGCAAUAUUACGCCAA,-0.939 ± 0.14,0.281 ± 0.24
AGAUAGCAAUAUUACGAGCC,-0.476 ± 0.18,-1.76 ± 0.28
CAUGAGCAAUAUUACGUCUG,-1.41 ± 0.073,-1.06 ± 0.073

Sequence,self-splicing fitness (ln) (30 °C),self-splicing fitness (ln) (37 °C)
UAGUAGCAAUAUUACGGACG,-2.09 ± 0.12,-0.623 ± 0.13
GGGAAGCAAUAUUACGUAAC,-2.91 ± 0.26,-1.06 ± 0.18
GAUUAGCAAUAUUACGACCG,-1.44 ± 0.14,0.0909 ± 0.18
ACGAAGCAAUAUUACGCGAU,-2.21 ± 0.13,-0.777 ± 0.14
GGAGAGCAAUAUUACGACCA,-2.28 ± 0.21,-1.92 ± 0.27
AGCCAGCAAUAUUACGUUCG,-3.46 ± 0.19,-2.48 ± 0.22
GAAGAGCAAUAUUACGCUUU,-4.12 ± 0.3,-1.91 ± 0.28
CCUAAGCAAUAUUACGUGGA,-2.73 ± 0.15,-2.55 ± 0.28
AUUCAGCAAUAUUACGUCGU,-0.283 ± 0.071,0.553 ± 0.085
GUCGAGCAAUAUUACGAUUG,-4.1 ± 0.33,-3.26 ± 0.26
AUACAGCAAUAUUACGCCCA,-0.142 ± 0.1,-0.545 ± 0.14
GGAAAGCAAUAUUACGCGGC,-2.98 ± 0.41,-2.03 ± 0.45
GCUGAGCAAUAUUACGCCUU,-1.98 ± 0.31,-1.48 ± 0.44
CCAAAGCAAUAUUACGUAAU,-4.12 ± 0.18,-2.62 ± 0.19
CGGAAGCAAUAUUACGCAGU,-2.73 ± 0.14,-2.25 ± 0.21
UCCGAGCAAUAUUACGCGCG,-2.28 ± 0.15,-3.28 ± 0.43
CGAAAGCAAUAUUACGUACU,-0.756 ± 0.078,0.23 ± 0.098
GAGUAGCAAUAUUACGGCCU,-0.381 ± 0.12,0.808 ± 0.19
CCACAGCAAUAUUACGCAUA,-3.46 ± 0.18,-2.42 ± 0.19
UCGUAGCAAUAUUACGACCG,-1.23 ± 0.18,-0.438 ± 0.34
AAACAGCAAUAUUACGUCCC,-1.44 ± 0.17,0.29 ± 0.17
CUGUAGCAAUAUUACGGAUA,-2.3 ± 0.28,-2.22 ± 0.33
GACAAGCAAUAUUACGUGAU,-1.77 ± 0.071,-1.17 ± 0.09
CGCAAGCAAUAUUACGCGCU,-3.78 ± 0.16,-1.41 ± 0.12
